Reference: article PMC3228903

Columns and labels:
[1] = substrate: NCCc1ccccc1; assay: Steady-state substrate oxidation and pH dependence, WT MAO B; assay type: biochemical, human; details: other: WT MAO B, pH 7.5
[2] = substrate: NCCC(=O)c1ccccc1N; assay: as above; assay type: biochemical, human; details: other: WT MAO B, pH 7.5
[3] = substrate: NCc1ccccc1; assay: purified protein, by the assay type; details: pH 7.5
[4] = substrate: NCCc1ccccc1; assay: Steady-state substrate oxidation and pH dependence, Ile199Ala MAO B; assay type: biochemical, human; details: other: I199A, pH 7.5
[5] = substrate: NCCC(=O)c1ccccc1N; assay: as above; assay type: biochemical, human; details: other: I199A, pH 7.5
[6] = substrate: NCCc1ccccc1; assay: Steady-state substrate oxidation and pH dependence, Ile199Ala/Tyr326Ala MAO B; assay type: biochemical, human; details: other: I199A-Y326A, pH 7.5
[7] = substrate: NCCC(=O)c1ccccc1N; assay: as above; assay type: biochemical, human; details: other: I199A-Y326A, pH 7.5

B1: WT MAO B (Homo sapiens) (protein)
chain: MSNKCDVVVVGGGISGMAAAKLLHDSGLNVVVLEARDRVGGRTYTLRNQKVKYVDLGGSYVGPTQNRILRLAKELGLETYKVNEVERLIHHVKGKSYPFRGPFPPVWNPITYLDHNNFWRTMDDMGREIPSDAPWKAPLAEEWDNMTMKELLDKLCWTESAKQLATLFVNLCVTAETHEVSALWFLWYVKQCGGTTRIISTTNGGQERKFVGGSGQVSERIMDLLGDRVKLERPVIYIDQTRENVLVETLNHEMYEAKYVISAIPPTLGMKIHFNPPLPMMRNQMITRVPLGSVIKCIVYYKEPFWRKKDYCGTMIIDGEEAPVAYTLDDTKPEGNYAAIMGFILAHKARKLARLTKEERLKKLCELYAKVLGSLEALEPVHYEEKNWCEEQYSGGCYTTYFPPGILTQYGRVLRQPVDRIYFAGTETATHWSGYMEGAVEAGERAAREILHAMGKIPEDEIWQSEPESVDVPAQPITTTFLERHLPSVPGLLRLIGLTTIFSATALGFLAHKRGLLVRV
B1 was tested, and the Km [1] was 9.4 ± 0.9 µM, the kcat [1] was 2.87 ± 0.05 s⁻¹ and the kcat/Km [1] was 300000 ± 33300 M⁻¹ s⁻¹. It also gave a Km [2] of 27 ± 2 µM, a kcat [2] of 1.6 ± 0.0167 s⁻¹ and a kcat/Km [2] of 59200 ± 4500 M⁻¹ s⁻¹. The Km ([3]; other: WT MAO B) was 150 ± 27 µM, the kcat ([3]; other: WT MAO B) was 5 s⁻¹ and the kcat/Km ([3]; other: WT MAO B) was 33300 M⁻¹ s⁻¹.

B2: Ile199Ala MAO B (Homo sapiens; I199A) (protein)
chain: MSNKCDVVVVGGGISGMAAAKLLHDSGLNVVVLEARDRVGGRTYTLRNQKVKYVDLGGSYVGPTQNRILRLAKELGLETYKVNEVERLIHHVKGKSYPFRGPFPPVWNPITYLDHNNFWRTMDDMGREIPSDAPWKAPLAEEWDNMTMKELLDKLCWTESAKQLATLFVNLCVTAETHEVSALWFLWYVKQCGGTTRIASTTNGGQERKFVGGSGQVSERIMDLLGDRVKLERPVIYIDQTRENVLVETLNHEMYEAKYVISAIPPTLGMKIHFNPPLPMMRNQMITRVPLGSVIKCIVYYKEPFWRKKDYCGTMIIDGEEAPVAYTLDDTKPEGNYAAIMGFILAHKARKLARLTKEERLKKLCELYAKVLGSLEALEPVHYEEKNWCEEQYSGGCYTTYFPPGILTQYGRVLRQPVDRIYFAGTETATHWSGYMEGAVEAGERAAREILHAMGKIPEDEIWQSEPESVDVPAQPITTTFLERHLPSVPGLLRLIGLTTIFSATALGFLAHKRGLLVRV
For B2, the Km [4] was 40 ± 2 µM, the kcat [4] was 2.05 ± 0.0333 s⁻¹ and the kcat/Km [4] was 51700 ± 3330 M⁻¹ s⁻¹. For the same protein, the Km [5] was 94 ± 8 µM, the kcat [5] was 1.47 ± 0.0333 s⁻¹ and the kcat/Km [5] was 15600 ± 1370 M⁻¹ s⁻¹. It also gave a Km ([3]; other: I199A) of 2133 ± 409 µM, a kcat ([3]; other: I199A) of 3.8 s⁻¹ and a kcat/Km ([3]; other: I199A) of 1780 M⁻¹ s⁻¹.

B3: Ile199Ala/Tyr326Ala MAO B (Homo sapiens; I199A/Y326A) (protein)
chain: MSNKCDVVVVGGGISGMAAAKLLHDSGLNVVVLEARDRVGGRTYTLRNQKVKYVDLGGSYVGPTQNRILRLAKELGLETYKVNEVERLIHHVKGKSYPFRGPFPPVWNPITYLDHNNFWRTMDDMGREIPSDAPWKAPLAEEWDNMTMKELLDKLCWTESAKQLATLFVNLCVTAETHEVSALWFLWYVKQCGGTTRIASTTNGGQERKFVGGSGQVSERIMDLLGDRVKLERPVIYIDQTRENVLVETLNHEMYEAKYVISAIPPTLGMKIHFNPPLPMMRNQMITRVPLGSVIKCIVYYKEPFWRKKDYCGTMIIDGEEAPVAATLDDTKPEGNYAAIMGFILAHKARKLARLTKEERLKKLCELYAKVLGSLEALEPVHYEEKNWCEEQYSGGCYTTYFPPGILTQYGRVLRQPVDRIYFAGTETATHWSGYMEGAVEAGERAAREILHAMGKIPEDEIWQSEPESVDVPAQPITTTFLERHLPSVPGLLRLIGLTTIFSATALGFLAHKRGLLVRV
With B3 the Km [6] was 703 ± 58 µM, the kcat [6] was 1.83 ± 0.0333 s⁻¹ and the kcat/Km [6] was 2670 ± 167 M⁻¹ s⁻¹. For the same protein, the Km [7] was 289 ± 23 µM, the kcat [7] was 1.07 ± 0.0333 s⁻¹ and the kcat/Km [7] was 3670 ± 333 M⁻¹ s⁻¹.
